From US9187762B2, “Compositions and methods comprising sequences having hydroxyphenylpyruvate dioxygenase (HPPD) activity” (PIONEER HI-BRED INTERNATIONAL, INC., priority 2010, dated 2015) come the findings set out here.

Data set [1] deals with T0 soybean plants. As to the kind of experiment: Herbicide spray test of transgenic T0 HPPD soy plants using mesotrione, visual injury. Format: in vivo. As to conditions: mesotrione 210 g ai/ha, eight days after treatment. The source says: (1987) Nature 327:70-73, U.S. Pat. No. 4,945,050) using a DuPont Biolistic PDS1000/He instrument. A selectable marker gene used to facilitate soybean transformation was a chimeric gene composed of the 35S promoter from Cauliflower Mosaic Virus (Odell et al. (1985) Nature 313:810-812), the hygromycin phosphotransferase gene from plasmid pJR225 (from E coli; Gritz et al. (1983) Gene 25:179-188) and the 3' region of the nopaline synthase gene from the T-DNA of the Ti plasmid of Agrobacterium tumefaciens. Another selectable marker used to facilitate soybean transformation was a chimeric gene composed of the S-adenosylmethionine synthase (SAMS) promoter (U.S. Pat. […] Pat. […] The selection agent used during the transformation process was either hygromycin or chlorsulfuron depending on the marker gene present. […] Pat. […] (1995) Genetics 139 (2), 921-939; Genbank L05363). In specific constructs, the SCP1 promoter of U.S. Pat. No. 6,072,050 was employed. Bombardments were carried out with linear DNA fragments purified away from any bacterial vector DNA. […] Bombarded soybean embryogenic suspension tissue was cultured for one week in the absence of selection agent, then placed in liquid selection medium for 6 weeks. […] Putative transgenic suspension culture tissue was maintained in selection medium for 3 weeks to obtain enough tissue for plant regeneration. Suspension tissue was matured for 4 weeks using standard procedures; matured somatic embryos were desiccated for 4-7 days and then placed on germination induction medium for 2-4 weeks. Germinated plantlets were transferred to soil in cell pack trays for 3 weeks for acclimatization. Plantlets were potted to 10-inch pots in the greenhouse for evaluation of herbicide resistance. […] Some T0 plants were not sprayed with herbicide and were all advanced to the next generation for testing.

The subject of data set [2] is maize HPPD. As to the kind of experiment: HPPD activity, coupled assay with HGD at 320 nm; substrate saturation kinetics (KM, kcat). Format: biochemical. The source says: (§1) HPPD catalyzes the conversion of 4-hydroxyphenylpyruvate (HPP) to homogentisate. See, FIG. 1. […] However, the product of the ensuing reaction in tyrosine metabolism, maleylacetoacetate, absorbs strongly at 320 nm. Furthermore, the enzyme catalyzing that reaction is also a dioxygenase having similar mechanism and buffer requirements as HPPD, making homogentisate dioxygenase (HGD) an ideal partner in a coupled assay, as shown.
(§2) The HDG gene from Pseudomonas aeruginosa (Amaya (2004) Arch Biochem Biophys 421, 135-142) was cloned into pVER7062 and electroporated into E. coli strain BL21(DE3). The enzyme was produced by methods similar to those described for HPPD. The purified enzyme has a KM for homogentisate of 23 uM and a kcat of 100/sec, properties highly suited for instantly converting the homogentisate produced by HPPD to maleylacetoacetate.
(§3) HPPD activity was measured by placing an aliquot (e.g., 6 ul) of the substrate HPP at 50-fold the desired final concentration into the wells of a low UV-absorbing assay plate. Reactions were started by adding a mixture (e.g., 294 ul) containing 25 mM Hepes, pH 7, 2 mM ascorbate, 10 uM FeSO4, 1 to 100 uM HPP, 50 nM HGD and 5 to 240 nM HPPD. Absorbance at 320 nm was monitored continuously in a plate-reading spectrophotometer (Spectramax, Molecular Devices).
(§4) The catalytic performance of wild-type HPPD and variants generated by shuffling was assessed by determining the substrate saturation parameters. The Michaelis-Menten kinetics protocol of the Spectramax software was customized for HPP concentrations ranging from 3.33 uM to 100 uM, or up to 1 mM if required. Reaction rates were measured as described above for each concentration of HPP. The software returns values of KM and Vmax using the Lineweaver-Burke transformation of the Michaelis-Menten equation.

Data set [3] deals with soybean HPPD. As to the kind of experiment: HPPD activity, coupled assay with HGD; substrate saturation kinetics (KM, kcat). Format: biochemical. As to conditions: substrate HPP; E. coli-expressed enzyme.
Description: as §1, §2, §3, §4
The amino acid substitutions identified during the shuffling and mutagenesis of the maize HPPD gene can be made at analogous positions in other HPPD proteins to improve their insensitivity toward HPPD-inhibiting herbicides. The sequences of native and improved maize HPPD were aligned with those of sorghum (Genbank accession number XP002453359) and soybean (Genbank accession number ABQ96868), and the motif substitutions were designed accordingly, as shown in FIG. 14. The genes designed for improvement were synthesized commercially, inserted into vector pVER7062 and expressed, purified and evaluated as in Example 1.

In data set [4] the test system is maize HPPD. As to the kind of experiment: ON rate ratio, OFF rate ratio and insensitivity parameter with herbicidal HPPD inhibitors. As to conditions: for ON rate ratio: mesotrione 4 uM, 100 uM HPP, 70 to 90 second interval. Format: biochemical. An excerpt: To devise a parameter for detecting changes in inhibitor binding affinity, KD, one can utilize the relationship between KD and the rates of binding and release of inhibitor to and from the enzyme. [formula] Higher KD (reduced affinity or increased insensitivity) can be attained with a numerically smaller ON rate, a larger OFF rate or both. […] The ratio of the reaction rate with inhibitor to that without inhibitor during the 70 to 90 second interval of the reaction was termed the “ON rate ratio”. […] Incubations with the same concentrations of enzyme but no mesotrione were done in parallel. After 1 hr at room temperature, 5 to 10 ul of the enzyme-inhibitor complex was dispensed into the wells of the assay plate. Reactions were started with the addition of 290 to 295 ul of 25 mM Hepes, pH 7, 2 mM ascorbate, 10 uM FeSO4, 100 uM HPP and 50 nM HGD. The reactions were monitored at 320 nm for 12 min. Reaction velocity accelerates as inhibitor is released from the enzyme until a steady state is reached, during which the reaction velocity is constant. The ratio of the steady state rate in mixtures containing mesotrione (or other herbicidal inhibitor) to the initial velocity of mixtures lacking inhibitor is termed the “OFF rate ratio”. Another parameter to record is the time span required for the reactions with inhibitor to reach the steady state. […] It is not certain that the steady state attained in the OFF rate reactions actually represents an equilibrium where OFF rates are now equal to ON rates. Because substrate and inhibitors bind in the same site, the high concentration of substrate present may competitively trap the inhibitor and prevent it from binding again. To be sure that improvement in ON rates is being taken into account, the ON and OFF rate ratios were multiplied together and the product is termed the “insensitivity parameter”. […] The variants in Table 9 were grouped according to the parameter in which they are improved compared to wild type. The sequence positions are numbered according to the wild-type maize amino acid sequence of SEQ ID 1. Some substitutions are effective in multiple contexts, as discussed in the next section.

[5] abbreviates: Elite soybean control, DNA none.
Where [6] appears, read: substrate HPP, E. coli-expressed enzyme.

For the molecule `CS(=O)(=O)c1ccc(C(=O)C2C(=O)CCCC2=O)c([N+](=O)[O-])c1` [mesotrione], in data set [1] (setting [5]), the “Mean Soybean Response (% Injury)” value is given as 88% and the “Soybean % Injury Response Range” value is on record as 80-95%. In addition, in data set [1] (Jack soybean control, DNA none), the “Mean Soybean Response (% Injury)” value is 87% and the “Soybean % Injury Response Range” value is 75-95%.

B1: D0223961: shuffled maize HPPD variant used for chloroplast transformation (protein)
chain: MGPTPTATAAGAAVAAASAAEQAAFRLVGHRNFVRFNPRSDRFHTLAFHHVELWCADAASAAGRFSFALGAPLAARSDLSTGNSAHASLLLRSGSLSFLFTAPYAHGADAATAALPSFSAAAARRFAADHGLAVRAVALRVADAEDAFRASVAAGARPAFGPVDLGRGFRLAEVELYGDVVLRYVSYPDGAAGEPFLPGFEGVASPGAADYGLSRFDHIVGNVPELAPAAAYFAGFTGFHEFAEFTTEDVGTAESGLNSMALANNSENVLLPLNEPVHGTKRRSQIQTFLDHHGGPGVQHIALASDDVLRTLREMQARSAMGGFEFLPPPPSDYYDGVRRCAGDVLTEAQINECQELGVMVDRDDQGVLLQIFTKPVGDRPTFFLEIIQRIGCMEKDEKGQEYQKGGCGGFGKKNFGQLFKSIEDYEKSLEAKQAAAAATAQGS
modifications: HPPD variant
notes: shuffled maize HPPD variant used for chloroplast transformation
The kcat is the maximal rate divided by the concentration of active sites. On to B1, for which, in data set [2] (variants truncated to ala20 vs full length), the kcat turned out to be 1.77 ± 0.207 s⁻¹. Moreover, the “Soybean % Injury Response Range” value in data set [1] (T0 soybean plants expressing the HPPD gene variant (per DNA construct)) is listed as 0-80%. Besides, the “Mean Soybean Response (% Injury)” value in data set [1] (T0 soybean plants expressing the HPPD gene variant (per DNA construct), 0=no effect, 100=dead plant) was 26%.

B2: Soy wt: wild-type soybean HPPD protein, SEQ ID NO: 2, expressed in E. coli (protein)
chain: MAIPMCNEIQAQAQAQAQAQPGFKLVGFKNFVRTNPKSDRFQVNRFHHIEFWCTDATNASRRFSWGLGMPIVAKSDLSTGNQIHASYLLRSGDLSFLFSAPYSPSLSAGSSAASSASIPSFDAATCLAFAAKHGFGVRAIALEVADAEAAFSASVAKGAEPASPPVLVDDRTGFAEVRLYGDVVLRYVSYKDAAPQAPHADPSRWFLPGFEAAASSSSFPELDYGIRRLDHAVGNVPELAPAVRYLKGFSGFHEFAEFTAEDVGTSESGLNSVVLANNSETVLLPLNEPVYGTKRKSQIETYLEHNEGAGVQHLALVTHDIFTTLREMRKRSFLGGFEFMPSPPPTYYANLHNRAADVLTVDQIKQCEELGILVDRDDQGTLLQIFTKPVGDRPTIFIEIIQRIGCMVEDEEGKVYQKGACGGFGKGNFSELFKSIEEYEKTLEAKRTA
modifications: Glycine max
For orientation: Km means the concentration of substrate that gives half-maximal velocity. Take B2: in data set [3], the Km came to 3 µM and the kcat is 1.67 s⁻¹.

B3: Maize wt: synthetic maize wild-type HPPD protein, SEQ ID NO: 1, expressed in E. coli (protein)
chain: MGPTPTAAAAGAAVAAASAAEQAAFRLVGHRNFVRFNPRSDRFHTLAFHHVELWCADAASAAGRFSFGLGAPLAARSDLSTGNSAHASLLLRSGSLSFLFTAPYAHGADAATAALPSFSAAAARRFAADHGLAVRAVALRVADAEDAFRASVAAGARPAFGPVDLGRGFRLAEVELYGDVVLRYVSYPDGAAGEPFLPGFEGVASPGAADYGLSRFDHIVGNVPELAPAAAYFAGFTGFHEFAEFTTEDVGTAESGLNSMVLANNSENVLLPLNEPVHGTKRRSQIQTFLDHHGGPGVQHMALASDDVLRTLREMQARSAMGGFEFMAPPTSDYYDGVRRRAGDVLTEAQIKECQELGVLVDRDDQGVLLQIFTKPVGDRPTLFLEIIQRIGCMEKDEKGQEYQKGGCGGFGKGNFSQLFKSIEDYEKSLEAKQAAAAAAAQGS
modifications: Zea mays
As for B3, the kcat in data set [2] (N-terminal truncated variants of maize wild-type HPPD, single measurement) was 2.77 s⁻¹; in data set [2] (setting [6]), 3.45 s⁻¹; in data set [2] (substrate HPP, E. coli-expressed enzyme, listed as wild type), “about 220 min^−1”. Besides, the Km in data set [2] (setting [6]) was found to be 5.2 µM. Also, the “Insensitivity parameter (ON rate ratio × OFF rate ratio) relative to that of maize wild-type HPPD” value in data set [4] (Isoxaflutole (diketonitrile)), in data set [4] (Sulcotrione), in data set [4] (Topramezone), in data set [4] (mesotrione) and in data set [4] (tembotrione) was 1.0 each time. Also, the “Triple product (ON rate ratio × OFF rate ratio × kcat), relative to that of maize wild-type HPPD” value in data set [4] (inhibitor Isoxaflutole (diketonitrile)), in data set [4] (inhibitor Mesotrione), in data set [4] (inhibitor Sulcotrione), in data set [4] (inhibitor Tembotrione) and in data set [4] (inhibitor Topramezone) was 1.0 each time. The “ON × OFF × kcat” value in data set [4] (mesotrione) was determined as 9.88. Also, in data set [4] (mesotrione), the Vmax MT (maximum reaction rate attained with mesotrione in the determination of OFF rate ratio) stood at 52 min⁻¹. For the same molecule, in data set [4] (mesotrione), the “insensitivity parameter (ON rate ratio × OFF rate ratio)” value amounted to 0.049. The figures for the ON rate ratio in data set [4] and in data set [4] (listed as WT) were 0.2 and 0.19, respectively. For the same molecule, the OFF rate ratio in data set [4] (mesotrione, pre-formed enzyme-inhibitor complex) is 0.26. For the same molecule, the “time span to attain steady state in OFF rate reaction” value in data set [4] (release of mesotrione from pre-formed complex, enzyme 240 nM) was 280 s. For the same molecule, the “tolerance to mesotrione in T0 soybean plants” value in data set [1] is on record as “moderate tolerance”.
